Results reported in article PMC7814183, “Supramolecular polymerization of sulfated dendritic peptide amphiphiles into multivalent L-selectin binders” (Beilstein Journal of Organic Chemistry, 2021).
Where two headings read alike, the source gives them in different places.

Legend:
[1] = CD spectroscopy, ionic strength-dependent titration of self-assembly; type: physicochemical; conditions: 25 µM solution in 20 mM TRIS, pH 7.4; CD band around 218 nm
From the text: The self-assembly behavior of the peptide-based materials can be readily investigated using CD spectroscopy. The supramolecular polymerization strongly relies on the formation of secondary structure elements, leading to ordered domains that lead to characteristic CD band spectra. By probing aqueous solutions of I at different concentrations in H2O, a strongly negative CD band at around λ ≈ 220 nm became apparent (Figure 1A). In the past we have assigned this characteristic CD band to a β-sheet-dominated short-range ordering of oligopeptide monomers, which is stable over a wide concentration range [30, 39–40].
Attaching functional groups to the dendritic peptide amphiphiles – and thus the supramolecular polymers – by exchanging one of the shielding dendritic tetra(ethylene glycol) dendrons is important with regard to potential applications. However, depending on the nature of the functional groups, the influence on the self-assembly behavior may not be neglected. In the present work, the installation of a sulfated oligoglycerol dendron introduces eight anionic charges to the periphery of the peptide amphiphile II that possibly counteracts the β-sheet-driven self-assembly due to electrostatic repulsion. CD spectroscopic experiments based on 25 µM or 50 µM solutions of II in 20 mM TRIS as well as PBS buffer support this notion (Figure 2A and Figure S2 in Supporting Information File 1). […]

[2] = TEM of negatively stained solutions (self-assembly morphology); type: physicochemical; conditions: TEM (25 µM, TRIS 20 mM pH 7.4, 100 mM NaCl) and cryo-TEM (50 µM, PBS (-/-) pH 7.4, 100 mM NaCl)
Description: The application of transmission electron microscopy (TEM) gave further insight into the morphology of the assemblies induced by the secondary structure formation (Figure 1). All samples for convential TEM imaging were prepared by placing 5 μL of the aqueous solution on a sample grid for 1 min, followed by the removal of the excess liquid using a filter paper and subsequent negative staining using a 2% uranyl acetate solution. By analyzing a 25 μM aqueous solution of I, long rigid anisotopic rod-like structures with lengths of 200–400 nm could be visualized (Figure 1B and 1C), in agreement with our previously reported findings. […] The copresence of shorter, more flexible structures could be seen as well. […] Since the morphology of the aqueous supramolecular polymers observed in dry TEM can be influenced by the sample preparation, cryo-TEM experiments were furthermore performed in order to visualize the assemblies in a native state (Figure 1D and Figure S1 in Supporting Information File 1). The presence of straight nanorods of over 200 nm in length with a high degree of lateral order could be observed, thus corroborating the interpretations from dry TEM experiments.
In order to compare the morphology of the self-assembled sulfated compound II with the TEG-decorated compound I, TEM and cryo-TEM experiments were performed (Figure 2B and 2C). […]

[3] = biological target: T1, L-selectin (Homo sapiens, UniProt P14151); experiment: competitive SPR L-selectin binding (inhibition) assay; conditions: competitive SPR (BIAcore X); L-selectin/Fc chimera on protein A-coated 15 nm gold nanoparticles preincubated with analyte; chip with immobilized sulfated tyrosine/sialyl-Lewis X ligand; HEPES 0.020 M pH 7.4, 0.150 M NaCl, 0.001 M CaCl2; sigmoidal fit
T1 construct: purchased R&D Systems, Minneapolis, USA
T1 sequence (P14151 with tags, fused parts or gaps limits assumed, species assumed): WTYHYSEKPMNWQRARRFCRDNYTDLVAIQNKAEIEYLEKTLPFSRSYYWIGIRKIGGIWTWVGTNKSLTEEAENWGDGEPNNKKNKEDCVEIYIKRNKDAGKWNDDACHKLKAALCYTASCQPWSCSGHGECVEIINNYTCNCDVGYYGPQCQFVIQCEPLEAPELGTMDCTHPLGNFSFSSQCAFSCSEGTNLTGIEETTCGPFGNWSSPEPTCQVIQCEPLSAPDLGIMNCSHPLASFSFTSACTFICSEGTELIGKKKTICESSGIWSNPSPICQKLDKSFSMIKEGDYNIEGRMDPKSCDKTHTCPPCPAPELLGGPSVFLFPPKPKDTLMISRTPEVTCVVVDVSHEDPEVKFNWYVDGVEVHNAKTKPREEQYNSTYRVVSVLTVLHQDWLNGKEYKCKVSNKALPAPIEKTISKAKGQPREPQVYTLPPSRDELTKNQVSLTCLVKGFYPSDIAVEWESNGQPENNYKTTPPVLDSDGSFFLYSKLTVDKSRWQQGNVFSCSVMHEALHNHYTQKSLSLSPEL
Description: The L-selectin binding behavior of the sulfated supramolecular polymer resulting from II was assessed using a competitive surface plasmon resonance (SPR) binding assay, whereby neutral supramolecular polymers of I were used as control experiment. L-Selectin-coated gold nanoparticles were incubated with analyte solutions of different concentrations and subsequently probed on an SPR-chip modified with immobilized sulfated tyrosine and sialyl-Lewis^X as model ligands. The resulting signal is referenced to a control experiment lacking the preincubation of L-selectin particles. Figure 3 summarizes the resulting dose–response curves.
Figure 3 Concentration-dependent relative L-selectin binding of the supramolecular polymers I and II in HEPES buffer (0.020 M, pH 7.4, with 0.150 M NaCl and 0.001 M CaCl2) measured by SPR. L-Selectin-coated nanoparticles were preincubated with solutions of the supramolecular polymers. […]
(Quantifoil R1/4) at room temperature. […]
autoloader protocol. The micrographs were recorded under low -dose conditions with a primary
magnification of 28000x and an acceleration voltage of 200 kV. The images were recorded by […]
Minneapolis, USA), and the binding signal to the artificial ligand was recorded. […]
taken, which yielded the respective dose–response curves. The IC50 values were determined […]

[4] = biological target: T1, L-selectin; conditions: literature comparison values; read-out: IC50, L-selectin binding; cited from earlier work
From the text: However, the densely sulfated dendritic polyglycerol of similar molecular weight is able to bind in the ...

Q: Which results are given for `COCCOCCOCCOCCOCC(COCCOCCOCCOCCOC)(COCCOCCOCCOCCOC)NC(=O)CCCCCNC(=O)[C@H](Cc1ccccc1)NC(=O)[C@H](Cc1ccccc1)NC(=O)[C@H](Cc1ccccc1)NC(=O)c1cc(C(=O)N[C@@H](Cc2ccccc2)C(=O)N[C@@H](Cc2ccccc2)C(=O)N[C@@H](Cc2ccccc2)C(=O)NCCCCCC(=O)NCCOCCNC(=O)Cn2cc(COC(COC(COC(COS(=O)(=O)O)COS(=O)(=O)O)COC(COS(=O)(=O)O)COS(=O)(=O)O)COC(COC(COS(=O)(=O)O)COS(=O)(=O)O)COC(COS(=O)(=O)O)COS(=O)(=O)O)nn2)cc(C(=O)N[C@@H](Cc2ccccc2)C(=O)N[C@@H](Cc2ccccc2)C(=O)N[C@@H](Cc2ccccc2)C(=O)NCCCCCC(=O)NC(COCCOCCOCCOCCOC)(COCCOCCOCCOCCOC)COCCOCCOCCOCCOC)c1` [II]?
A: added NaCl at which the characteristic β-sheet CD signature is restored [1]: > 100 mM; length of long rigid rods [2]: several hundred nanometers

Q: Which IC50 [3] does the source give for `COCCOCCOCCOCCOCC(COCCOCCOCCOCCOC)(COCCOCCOCCOCCOC)NC(=O)CCCCCNC(=O)[C@H](Cc1ccccc1)NC(=O)[C@H](Cc1ccccc1)NC(=O)[C@H](Cc1ccccc1)NC(=O)c1cc(C(=O)N[C@@H](Cc2ccccc2)C(=O)N[C@@H](Cc2ccccc2)C(=O)N[C@@H](Cc2ccccc2)C(=O)NCCCCCC(=O)NC(COCCOCCOCCOCCOC)(COCCOCCOCCOCCOC)COCCOCCOCCOCCOC)cc(C(=O)N[C@@H](Cc2ccccc2)C(=O)N[C@@H](Cc2ccccc2)C(=O)N[C@@H](Cc2ccccc2)C(=O)NCCCCCC(=O)NC(COCCOCCOCCOCCOC)(COCCOCCOCCOCCOC)COCCOCCOCCOCCOC)c1` [I] here?
A: 5 µM

Q: For unfractionated heparin, which IC50 [4] is on record?
A: 12 µM
